Reference: US20190085084A1 (published 2019)
Numbering of substitutions follows the chain as printed. Each block holds one binder with its values, some of them ahead of it.

How the values were obtained:
[1] = biological target: T1, human Sortilin expressed on HEK293T cells (human, UniProt Q99523 78-830); assay: flow cytometry titration on HEK293T cells expressing human Sortilin, 4 C, apparent KD
T1 construct: also called hSort; HEK293T+ hSort

[2] = biological target: T2, mouse Sortilin expressed on HEK293T cells (mouse, UniProt Q6PHU5 74-825); assay: flow cytometry titration on HEK293T cells expressing mouse Sortilin, 4 C, apparent KD
T2 construct: also called msSort; mSort

[3] = biological target: T3, mouse Sortilin (R&D Systems), recombinant (mouse, UniProt Q6PHU5 74-754, limits assumed); assay: ELISA, biotinylated Progranulin on plate-immobilized Sortilin
T3 construct: Bought protein; also called mouse SORT1
Experimental: (§1) Briefly, human or mouse Sortilin (R&D Systems) was immobilized overnight on an ELISA plate (2 μg/ml in PBS). The plates were washed in wash buffer (PBS+0.05% TWEEN20) and blocked for one hour at 37° C. with binding buffer (PBS+1% BSA). […] Plates were washed thrice in wash buffer and incubated with Streptavidin-HRP (1:200 in binding buffer, R&D Systems) for 20 min. Plates were washed thrice again and incubated with TMB substrate solution until color developed. The reaction was stopped by adding 50 ul of 2N sulfuric acid and color was quantified using a Biotek Synergy H1 plate reader. Data was analyzed and fitted in Prism.

[4] = biological target: T4, Human His-tagged Sortilin (R&D Systems) (human, UniProt Q99523 78-755); assay: as above
T4 construct: Bought protein; also called His-captured Sortilin (SORT1); Histidine-tagged human Sortilin
Experimental: as §1

[5] = biological target: T4, Human His-tagged Sortilin (R&D Systems); assay: Biacore SPR, Sortilin captured by anti-His antibody on CM5 chip, Progranulin flowed over
Text: Briefly, Sortilin was captured on a CM5 sensor chip that was immobilized with an anti-His antibody (kit from GE). Progranulin was flowed over in HBS binding buffer at various concentrations. Fitting of sensorgrams for affinity estimations was done using BIAevaluation version 3.1.

Kd [1]: 3.84 nM
Kd [2]: 6.62 nM
B1: anti-Sortilin antibody S-15-6-12 (antibody, V domains shown)
VH: QVQLVQSGAEVKKPGASVKVSCKASGYTFTSRYMSWVRQAPGQGLEWMGIINPVGGSTSYAQKFQGRVTMTRDTSTSTVYMELSSLRSEDTAVYYCARDPSGIALAGPGSPYYRGMDVWGQGTTVTVSS
VL: EIVMTQSPATLSVSPGERATLSCRASQSVSSNLAWYQQKPGQAPRLLIYGASTRATGIPARFSGSGSGTEFTLTISSLQSEDFAVYYCQQARLGPWTFGGGTKVEIK

Kd [1]: 4.3 nM
Kd [2]: 8.89 nM
B2: anti-Sortilin antibody S-15-10-12 (antibody, V domains shown)
VH: B1 VH with S31K, R32Y, V54I, L105A, G107F, G109A, S110G, P111R, R114Y
VL: B1 VL

Kd [3]: 40 nM
B3: recombinant mouse Progranulin (Adipogen) (ligand, UniProt P28798 18-589, looked up)
chain: TQCPDGQFCPVACCLDQGGANYSCCNPLLDTWPRITSHHLDGSCQTHGHCPAGYSCLLTVSGTSSCCPFSKGVSCGDGYHCCPQGFHCSADGKSCFQMSDNPLGAVQCPGSQFECPDSATCCIMVDGSWGCCPMPQASCCEDRVHCCPHGASCDLVHTRCVSPTGTHTLLKKFPAQKTNRAVSLPFSVVCPDAKTQCPDDSTCCELPTGKYGCCPMPNAICCSDHLHCCPQDTVCDLIQSKCLSKNYTTDLLTKLPGYPVKEVKCDMEVSCPEGYTCCRLNTGAWGCCPFAKAVCCEDHIHCCPAGFQCHTEKGTCEMGILQVPWMKKVIAPLRLPDPQILKSDTPCDDFTRCPTNNTCCKLNSGDWGCCPIPEAVCCSDNQHCCPQGFTCLAQGYCQKGDTMVAGLEKIPARQTTPLQIGDIGCDQHTSCPVGQTCCPSLKGSWACCQLPHAVCCEDRQHCCPAGYTCNVKARTCEKDVDFIQPPVLLTLGPKVGNVECGEGHFCHDNQTCCKDSAGVWACCPYLKGVCCRDGRHCCPGGFHCSARGTKCLRKKIPRWDMFLRDPVPRPLL
notes: Used biotinylated; also called mPGRN; mouse PGRN

Kd [1]: 2.05 nM
B4: anti-Sortilin antibody S-22-7 (antibody, V domains shown)
VH: QVQLVQSGAEVKKPGSSVKVSCKASGGTFSSYAISWVRQAPGQGLEWMGGIIPGFGRANYAQKFQGRVTITADESTSTAYMELSSLRSEDTAVYYCARQGRKTGYYYYYGMDVWGQGTTVTVSS
VL: DIQMTQSPSTLSASVGDRVTITCRASQSISSWLAWYQQKPGKAPKLLIYKASSLESGVPSRFSGSGSGTEFTLTISSLQPDDFATYYCQQADGHITFGGGTKVEIK

Kd [4]: 14 nM
Kd [5]: 14.3 nM
B5: recombinant human Progranulin (Adipogen) (ligand, UniProt P28799 18-593, looked up)
chain: TRCPDGQFCPVACCLDPGGASYSCCRPLLDKWPTTLSRHLGGPCQVDAHCSAGHSCIFTVSGTSSCCPFPEAVACGDGHHCCPRGFHCSADGRSCFQRSGNNSVGAIQCPDSQFECPDFSTCCVMVDGSWGCCPMPQASCCEDRVHCCPHGAFCDLVHTRCITPTGTHPLAKKLPAQRTNRAVALSSSVMCPDARSRCPDGSTCCELPSGKYGCCPMPNATCCSDHLHCCPQDTVCDLIQSKCLSKENATTDLLTKLPAHTVGDVKCDMEVSCPDGYTCCRLQSGAWGCCPFTQAVCCEDHIHCCPAGFTCDTQKGTCEQGPHQVPWMEKAPAHLSLPDPQALKRDVPCDNVSSCPSSDTCCQLTSGEWGCCPIPEAVCCSDHQHCCPQGYTCVAEGQCQRGSEIVAGLEKMPARRASLSHPRDIGCDQHTSCPVGQTCCPSLGGSWACCQLPHAVCCEDRQHCCPAGYTCNVKARSCEKEVVSAQPATFLARSPHVGVKDVECGEGHFCHDNQTCCRDNRQGWACCPYRQGVCCADRRHCCPAGFRCAARGTKCLRREAPRWDAPLRDPALRQLL
notes: Used unlabelled, biotinylated (NHS-PEG4 or Sulfo-NHS) or labelled with DyLight 650, as the assay says; also called PGRN; hPGRN
